Here are results for 13 sequences from a protein production outcome set (Wang et al. 2014).

A short description of the data set: label from the status in PepcDB records.
Consider “MHNFLIIGAFISLGILLRRFKALPEHTPFVLNKIAINVCLPALILLNAPKIAFTRDAVTAAIIPWALLALSVGLVLLGAKIWQWPRPVVGVLLLIVPLGNTSFLGVPIIRTFFGADGLPHLIVYDQIGTMMIFATYGSFILSLYGQDGTLSVSAVVRKMLLFPPSLALAAGLALKSWSYPDGLSLALHYLALPLVPVVMTAIGLQLRLRLPPHLAAPVGIGLGIKMLAAPLAVLVACRLVDMNGLAVGVSVVEAGMPPMVTAGALAVVAGMEAELAIALVGIGILCSFGSLPALFWLVSL”, for which the protein production result is “failed”.
As for “MNKRSIFSNWFITARPKTLPLALASIMVGSALANWVGQFDWVTNLLAIITTMLLQILSNFANDYGDYVKGSDTQERIGPLRAIQQGNITGEQLRQAVIFLSFLSFISGLVLTIYAYQSLQDLLVFVSLGVVSIIAAISYTVGKKAYGYLGLGDLFVLIFFGFVAVIGSFYLQAHSIPIIILLPAFACGLLSVAVLNINNLRDINQDRQAGKNTLIVRIGSDNGRIYHMLLLTLAVICYLIFAIIEGNHWYNYLFLLAVPLLVQHALFVYRYQEPIELRPMLGKMAALALLTNLLFSIGIMLG”, the entry is “failed”; as for “MGEMTLAFIEEQYKELDNLNNKENPAVLTRNTATGELLVRKIIPISFAPVLEELKKLSSNYLPKIEVMIPNGSELIVYEEYINGKNLADLMKVNAPFDADEVTGLMLMLSDALTELHTNAIIHRDIKPSNIMISSDGVLKLIDFDASRVFEVGKNQDTVNLGTIGYAAPEQYGYSQTDARSDIYSIGVLMLELLRGKNNLPDKETATSLEKIAMQAASFDPEQRFQTIQEFRTAIKNDSLGPTFVSELTNLSDFATIEDSADEINWATSTDEYEKDFIPWYKHIPGFRTGHTWKMVVAVLGYIFMAFGLFTPPTEGVKMNNIENFFANFFLIFPAFIIFTNLCGIWSKLPLLKSSSKGTRKVGIVVYIFVCIMIYGIYTEIFS”, “failed”.
Then “MIQTKDIIELTDTYGANNYHPLPIVISKAEGVWVEDPEGNRYMDLLSAYSAVNQGHRHPKIINALIDQANRVTLTSRAFHSDQLGPWYEKVAKLTNKEMVLPMNTGAEAVETAIKTARRWAYDVKKVEANRAEIIVCEDNFHGRTMGAVSMSSNEEYKRGFGPMLPGIIVIPYGDLEALKAAITPNTAAFILEPIQGEAGINIPPAGFLKEALEVCKKENVLFVADEIQTGLGRTGKVFACDWDNVTPDMYILGKALGGGVFPISCAAANRDILGVFEPGSHGSTFGGNPLACAVSIAALEVLEEEKLTERSLQLGEKLVGQLKEIDNPMITEVRGKGLFIGIELNEPARPYCEQLKAAGLLCKETHENVIRIAPPLVISEEDLEWAFQKIKAVLS”, with “not failed”; and “MALPQLSIWQPGDGLRKIKYKYHVCLIVIFSVLIRLLFLTDRYLWCDEASSVLISRHSVDNLLFHAAFDVHPPLYYLLLHDWIILLGDSIAAVRSLSLLFGILTVVLVIALTRWLANERTALLAGWFAALMPMAVHYSQETRMYALMGMLTLAAALALMMWIKTPTHNRYLVAYALLMTFSFYTHYFTLFTLIAHWIAVTILSCQSHKTACYLKLPGWWFANLAIAVAYLPWLPVLFNLLTHLAQLRAGNDIGWIPPVTWRDLPAMYWHFFTGNNGQGFPSFILWLAVGGFIGTVGRISLYNGEYERYQLILFCNLVIPVMLVFIISWWMPLFIDRYFFFSSLSIPPLLAVLLTRAKKAVCGFWFILFTLLFGYGSYHNNPEHIDEFKPLVNYINTRHQPNDAVVVSKMFDYLSYVYYNKRDYRTFLYTPPNAHGTSGRPNAYGFGSLFYAQADQTYIDTLTTLSKSYHRVWLVSGGNFSQDYPLPSEWQNIAKFRSGRFQVQLFVIPTQQARQMQ”, with “failed”.
Then “MKPNFKNIDIYAGFQPQNGMEWQKENGITADWKTPEHINVKPVYTKEDLEGMEHLNYVAGIPPYLRGPYSMMYTFRPWTIRQYAGFSTAEESNAFYRRNLASGQKGLSVAFDLPTHRGYDPDHERVVGDVGKAGVSICSLENMKVLFDGIPLNKMSVSMTMNGAVLPIMAFYINAGLEQGAKLEEMAGTIQNDILKEFMVRNTYIYPPAFSMKIISDIFEYTSQKMPKFNSISISGYHMQEAGATADIELAYTLADGLEYLRAGVAAGIDIDAFAPRLSFFWAIGMNHFMEIAKMRAARMLWAKIVKQFNPKNPKSLALRTHSQTSGWSLTEQDPFNNVGRTCIEAMAAALGHTQSLHTNALDEAIALPTDFSARIARNTQIYIQEETYVCKNVDPWGGSYYVESLTNELAHKAWEHIQEIESLGGMAKAIETGVPKMRIEEAAARTQARIDSGAQTIVGTNKYRLEKEDPIDILEVDNTAVRLEQIENLKRLKEGRNQAEVDKALAAITECVKTGKGNLLELAVEAAHVRATLGEISDACETIVGRYKAVIRTISGVYSSESKKDTDFARACELTEEFAKKEGRRPRIMIAKMGQDGHDRGAKVVATGYADCGFDVDMGPLFQTPAEAARDAVENDVHVVGVSSLAAGHKTLIPQIIEELKKLGREDILVIAGGVIPAQDYDFLYKAGVVAIFGPGTSVAKAAVQIMDILLDEEE”, with “failed”.
In the case of “MSVIKLKSKLKYCHYAYDDEGYVIHMLTSNERTFFTNAYIIETKNSIVVVDTLMVNSDAILLRQYMDNINKPLIAVIITHGHPDHYNGTEIITGFKEVPIISTKGIRDCIQDTVDSKEVKWKPYFGQDWPEHKILPNQLVIDSEVVNLDGLDYSFRDLGAAESSSDLFFTLGEKRSVIFVGDVVFNNMHGFMNDGNSAQWLKVLQKLLTEIADVKLLFTGHGDPGDTHQLVQRQIDYISHYRSNLLAIIRGNQLLNDTQKQSFEQLMMANYPEFQLSSFIKAGIDAVSQELIVEQNDKP”, the protein production result is recorded as “failed”.
For the sequence “MELKNVKDAFDRVTKKQKLCYSKTHEVVDKMSQEIDKALKTIQEDNHESVVADLKKTFEEIAPINLLEASQKEINGVLTKYPKALDKTLNPDISTAYRNVKFDTHTVHQILAQFFYRQGMYDVGDCFISETGEVKPESSVTKAFMEMNMILEAMKERDLGPALKWVASNSDKLKEAKSDLELKLHSLHFLEIAKDKTSEEAINYARKHFATYSADSCCFPEIQKLMCSLLWIRNLNKSPYSEFLSPVLWTNAAKELTRQYCILLGESPESPLSVTVAAGSQVLPTFLKYLNVLPEKRKEWQTMEQLLVPVELSEEYRFYSVFVCPVSKEHSSEDNPPMRLACGHVLCKQSINRMSRNGSRSFKCPYCPTDIDASQCKQLYF”, the protein production result is recorded as “failed”.
Then “MDVFSDRVLLTEESPIRKLVPFAEMAKKRGVRIHHLNIGQPDLKTPEVFFERIYENKPEVVYYSHSAGIWELREAFASYYKRRQRVDVKPENVLVTNGGSEAILFSFAVIANPGDEILVLEPFYANYNAFAKIAGVKLIPVTRRMEEGFAIPQNLESFINERTKGIVLSNPCNPTGVVYGKDEMRYLVEIAERHGLFLIVDEVYSEIVFRGEFASALSIESDKVVVIDSVSKKFSACGARVGCLITRNEELISHAMKLAQGRLAPPLLEQIGSVGLLNLDDSFFDFVRETYRERVETVLKKLEEHGLKRFTKPSGAFYITAELPVEDAEEFARWMLTDFNMDGETTMVAPLRGFYLTPGLGKKEIRIACVLEKDLLSRAIDVLMEGLKMFCSSRISC”, with “not failed”; and “MTTIYLVRHGQASFGKANYDELSENGQAQATILGQYLKEILKEQPYVIAGTMKRHLQTAQGALKECFPDTHIYTHAGWNEFNHQQVFANYEPRFKQPELLKQDVAKEQNPRAYLAKIFESAISRWTDGEFHHEYEESWPKFKQRVEIALKMLCDELAQTKPRYAVVFTSGGVISVIAGKILELNPNRTFALNWAITNTSLTTLRLVGNEPQLLSLNEHHFIKVVNPALLTWI”, with “failed”.
As for “MNYFLMIILGVLGAESRFAIELTIDNSAYPYGTLIINMIGCFLLGFMYYFFVEAKKTINQLVAVVSTGFVGSFTTFSTFELEIFKMFQLDQYLKAISYFFVTMLSGLLFVFLGYCLSKLIIIKRKENK”, the entry is “failed”.
As for “MEATNKMKVEVWSDIMCPFCYIGKRNYEAGLKQFADSNNIEIIWKSFQLDPNIPQDTAVTENVYQYLAERKGMSYEQSVQMHDSVVATAKKAGLDYNFDKAVIANSFNAHRMIQLAKTKDLGDAAEERLFYAYFTEGKNVGNSYVLIELGKDIGLTEAEVQTALTDDTYAYKVRQDVEEAQHLGVRGVPFFVFDRKYAVSGAQPPQAFLETLEKSFSEWRKEHPASPFEVSEGPSCSVDGCD”, the entry is “not failed”; as for “MEEISGGALTDTLTDIVTWAAKEVGAIALGASLGAIFGTAYAGRWGGVSGGIFGIGSIGQGVGMIAGVILGGVCFGIAAGIVGWDMTLDYAQGVMDAIYDGTLNFWSN”, “failed”.
